This note sets out measurements from US6506874.

What is called IC50 is the concentration that gives 50% inhibition.

First the molecules themselves.
T1: human IGFBP-1 (human, UniProt P08833 26-259)
T1 construct: Secreted recombinant protein
T1 sequence (looked up): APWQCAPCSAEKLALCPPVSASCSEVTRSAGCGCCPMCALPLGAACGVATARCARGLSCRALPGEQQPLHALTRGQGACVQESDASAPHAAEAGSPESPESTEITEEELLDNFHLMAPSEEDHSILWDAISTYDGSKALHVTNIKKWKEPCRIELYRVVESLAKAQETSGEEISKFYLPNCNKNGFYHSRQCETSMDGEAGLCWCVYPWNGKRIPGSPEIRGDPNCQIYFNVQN

B1: IGF-I D12A (on G1S-A70V) displayed on phage (ligand)
chain: SPETLCGAELVAALQFVCGDRGFYFNKPTGYGSSSRRAPQTGIVDECCFRSCDLRRLEMYCAPLKPAKSV
notes: not shown: Display partner: M13 gene III protein fragment (residues 249-406) and the junction to it
B2: IGF-I D45A (on G1S-A70V) displayed on phage (ligand)
chain: B1 chain with A12D, D45A
notes: not shown: M13 gene III fragment (residues 249-406) used as phage-display carrier, and its junction to IGF-I
B3: IGF-I T29A (on G1S-A70V) displayed on phage (ligand, not shown: large carriers)
chain: B1 chain with A12D, T29A
B4: IGF-I Y31A (on G1S-A70V) displayed on phage (ligand, not shown: large carriers)
chain: B1 chain with A12D, Y31A
B5: IGF-I P2A (on G1S-A70V) displayed on phage (ligand)
chain: B1 chain with P2A, A12D
notes: as for B2
B6: IGF-I S34A (on G1S-A70V) displayed on phage (ligand, not shown: large carriers)
chain: B1 chain with A12D, S34A
B7: IGF-I E9A (on G1S-A70V) displayed on phage (ligand, not shown: large carriers)
chain: B1 chain with E9A, A12D
modifications: disulfide (positions not given here); not fully specified; also: displayed on M13 phage as gene III fusion
B8: IGF-I S33A (on G1S-A70V) displayed on phage (ligand, not shown: large carriers)
chain: B1 chain with A12D, S33A
B9: IGF-I G30A (on G1S-A70V) displayed on phage (ligand, not shown: large carriers)
chain: B1 chain with A12D, G30A
B10: IGF-I G32A (on G1S-A70V) displayed on phage (ligand, not shown: large carriers)
chain: B1 chain with A12D, G32A
B11: IGF-I P28A (on G1S-A70V) displayed on phage (ligand, not shown: large carriers; small tags and cut ends)
chain: B1 chain with A12D, P28A
B12: IGF-I G7A (on G1S-A70V) displayed on phage (ligand, not shown: large carriers)
chain: B1 chain with G7A, A12D
modifications: disulfide (positions not given here); not fully specified; also: displayed on M13 phage as gene III fusion

Where a chain is given by its changes, count along the chain named. Names and notes keep the numbering of the source.

The first test concerns the target T1, human IGFBP-1. Put plainly: competitive phage ELISA. How it is done: (§1) Phage particles were harvested and resuspended in PBS buffer as described in Lowman, H. B., "Phage Display of Peptide Libraries on Protein Scaffolds," in Cabilly, S. (ed.), *Combinatorial Peptide Library Protocols* (Humana Press Inc.: Totowa, N.J., 1998), pp. 249–264. Then phage concentrations were normalized to yield a maximal ELISA signal of 0.2–0.4 for each mutant (Lowman, in Cabilly, S. (ed.), supra). Threefold serial dilutions of soluble competitor were prepared on non-absorbent microtiter plates (Nunc, F, 96 wells) with binding buffer (0.5% TWEEN™ 20/PBS) containing phage at the previously-determined concentrations. The dilution range of competitor protein extended over six orders of magnitude, starting at 5 μM for IGFBP-1 and 500 nM for IGFBP-3. After blocking, the plates containing immobilized target were washed with 0.05% TWEEN™ PBS buffer and subsequently incubated with 80 μl/well of the premixed phage-competitor solutions for 1 hour at room temperature. […] Numbers in Table I represent mean ±standard deviation of individually assessed $IC50$ values.
(§2) At least two different clones of every mutant were tested.
(In general: In an ELISA, binding on a coated surface is turned into a signal by an enzyme label.)
Consider B1, for which the “fold increase in binding” value is roughly 2 fold. Take B2: the “fold increase in binding” value was roughly 2 fold.

Another test addresses T1, human IGFBP-1. Put plainly: competitive phage ELISA, soluble IGFBP-1. How it is done: as §1, §2
Consider B3, for which the 50% inhibitory concentration (IC50) is 7.3 nM.

On to B4, for which the IC50 was 6.8 nM.

The molecule B5 gave an IC50 of 11 nM. On the same count and under the same terms, under B6 stands 9.5 nM. Still for that read-out and setting: under B7 stands 8.6 nM; under B8, 9.1 nM; under B9, 7.1 nM. Still for that read-out and setting: under B10 stands 10.9 nM; under B11, 9.3 nM.

The target in a further test is T2, recombinant human IGFBP-3 (human, UniProt P17936 28-291).
T2 construct: Secreted recombinant protein
T2 sequence (P17936 28-291 limits assumed): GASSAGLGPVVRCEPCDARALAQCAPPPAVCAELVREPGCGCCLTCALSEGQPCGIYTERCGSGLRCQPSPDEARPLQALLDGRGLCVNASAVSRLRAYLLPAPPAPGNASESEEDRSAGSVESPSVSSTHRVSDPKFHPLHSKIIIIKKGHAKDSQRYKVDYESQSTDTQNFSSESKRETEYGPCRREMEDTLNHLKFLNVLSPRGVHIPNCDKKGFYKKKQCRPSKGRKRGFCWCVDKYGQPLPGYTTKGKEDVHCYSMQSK
As to the kind of experiment: competitive phage ELISA, soluble IGFBP-3. How it is done: as §1, §2
On to B3, for which the concentration for half-maximal inhibition (IC50) was 1.23 nM. As to B4, the 50% inhibitory concentration (IC50) was 0.73 nM. On to B5, for which the IC50 stood at 0.81 nM. Still for that read-out and setting: under B6 stands 1.65 nM; under B7, 1.32 nM; under B8, 1.01 nM. The same measure, in the same setting: then B9, with 0.58 nM; and B10, with 0.76 nM; and B11, with 1.41 nM.

Regarding B12, the concentration for half-maximal inhibition (IC50) came to 4.58 nM.
